This data set can be described thus: protein stability index of a GFP-peptide fusion (GPS, HEK-293T) (PSI 1-6); higher = more stable. Conditions: c terminus: a fixed tail appended.

± gives the standard deviation.
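Also: 24-mer peptide tiles fused after GFP, lentivirally expressed, FACS-sorted into six equal bins by GFP/DsRed ratio, decoded by Illumina sequencing, PSI is the read-weighted mean bin number.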

HSGFEDELSEVLENQSSQAELKEA [CHGA]: the protein stability index (treatment: DMSO) was determined as 5.5 ± 0.29 and the protein stability index (treatment: MLN4924 1 uM, 8 h) came out at 5.27 ± 0.33.

As to HSIIISLVEAGAHTDMTNKQNKTP [FEM1B], the protein stability index came to 2.46 ± 0.49 (treatment: DMSO) and 2.63 ± 0.32 (treatment: MLN4924 1 uM, 8 h).

With HSKGHKSSRQEKRPLCAQGDWHSP [ELOA2], the protein stability index reads like this: (treatment: DMSO) 3.93 ± 0.28; (treatment: MLN4924 1 uM, 8 h) 4.23 ± 0.37.

As for HSLEYIDLMETTQYMNEGELRVLA [HDAC6], the protein stability index is 2.79 ± 0.4 (treatment: DMSO) and 3.04 ± 0.34 (treatment: MLN4924 1 uM, 8 h).

The sequence HTETKTITYESSQVDPGTDLEPGV [EPB41L3] yielded a protein stability index (treatment: DMSO) of 5.48 ± 0.17 and a protein stability index (treatment: MLN4924 1 uM, 8 h) of 5.37 ± 0.25.

With HTLAVMNDRLYAIGGNHLKGFSHL [KLHL14], the protein stability index is, setting by setting: (treatment: DMSO) 2.22 ± 0.12; (treatment: MLN4924 1 uM, 8 h) 2.18 ± 0.11.

HVASLADDKMVRFWRIDEDYPVQV [WSB1] registered a protein stability index (treatment: DMSO) of 2.4 ± 0.23 and a protein stability index (treatment: MLN4924 1 uM, 8 h) of 3.02 ± 0.51.

On to IACYVMKHYRFTHAEIIAWIRICR [CDC14A], for which the protein stability index runs as follows: (treatment: DMSO) 2.37 ± 0.72; (treatment: MLN4924 1 uM, 8 h) 2.24 ± 0.53.

IAHDGQRIYVLGGGTSWTAYSLNK [KLHDC10]: the protein stability index was found to be 2.13 ± 0.38 (treatment: DMSO) and 2.1 ± 0.066 (treatment: MLN4924 1 uM, 8 h).

For IAQYALLGYFIRSWRTLAILVNLQ [SLC22A15], the protein stability index reads like this: (treatment: DMSO) 3.07 ± 0.51; (treatment: MLN4924 1 uM, 8 h) 2.78 ± 0.21.

With ICDKHWTAKNSRVVCGMFGFPGER [LOXL2], the protein stability index reads like this: (treatment: DMSO) 2.42 ± 0.34; (treatment: MLN4924 1 uM, 8 h) 2.42 ± 0.35.

Turning to ICEDSFDGRSLSKLNLCEDGPCHK [SCARA5], the protein stability index was 4.55 ± 0.15 (treatment: DMSO) and 4.57 ± 0.16 (treatment: MLN4924 1 uM, 8 h).

As to ICTRKPEEIRGGGLLKYCSLLVHG [TENT5D], the protein stability index (treatment: DMSO) was 2.24 ± 0.43 and the protein stability index (treatment: MLN4924 1 uM, 8 h) was determined as 2.03 ± 0.3.

Take IDGQGRPRTSQSEETRVWHRRDGK [CAMK2B]: the protein stability index runs as follows: (treatment: DMSO) 5.2 ± 0.2; (treatment: MLN4924 1 uM, 8 h) 5.24 ± 0.11.

Turning to IDIIPNPQERTLTLVDTGIGMTKA [HSP90AB1], the protein stability index is, setting by setting: (treatment: DMSO) 3.55 ± 0.19; (treatment: MLN4924 1 uM, 8 h) 3.43 ± 0.51.

As to IDKNRRKSCQACRLRKCYEVGMVK [ESR2], the protein stability index reads like this: (treatment: DMSO) 2.75 ± 0.34; (treatment: MLN4924 1 uM, 8 h) 3.08 ± 0.17.

As to IDPETKKHIPYREHKSLTGTARYM [CSNK1G3], the protein stability index reads like this: (treatment: DMSO) 3.38 ± 0.45; (treatment: MLN4924 1 uM, 8 h) 3.72 ± 0.18.

For the sequence IDSGSPAEEAGLKNNDLVVAVNGE [PDZK1], the protein stability index stood at 5.45 ± 0.48 (treatment: DMSO) and 5.58 ± 0.2 (treatment: MLN4924 1 uM, 8 h).

On to IEANFPRRVLPCIPSEEWPNPPTL [FAF2], for which the protein stability index was 2.9 ± 0.28 (treatment: DMSO) and 3.05 ± 0.22 (treatment: MLN4924 1 uM, 8 h).

As for IEILPNVCYTACATLKGPDSHYGT [BTBD1], the protein stability index worked out at 2.26 ± 0.19 (treatment: DMSO) and 2.31 ± 0.2 (treatment: MLN4924 1 uM, 8 h).

Take IFGDLCGNMANLSLHDHDGSSGAS [DVL3]: the protein stability index is, setting by setting: (treatment: DMSO) 3.9 ± 0.45; (treatment: MLN4924 1 uM, 8 h) 4.27 ± 0.17.

Regarding IFSAPNYCYRCGNQAAIMELDDTL [PPP2CA], the protein stability index is 2.37 ± 0.6 (treatment: DMSO) and 2.29 ± 0.4 (treatment: MLN4924 1 uM, 8 h).

On to IGDSRPPSFHPHAGGGSQENLDND [DVL3], for which the protein stability index by setting is: (treatment: DMSO) 5.56 ± 0.18; (treatment: MLN4924 1 uM, 8 h) 5.41 ± 0.1.

IGLRQHHCRKCGKAVCGKCSSKRS [WDFY2]: the protein stability index runs as follows: (treatment: DMSO) 4.08 ± 0.17; (treatment: MLN4924 1 uM, 8 h) 4.15 ± 0.26.

Turning to IHKASATIIEPAGESDNPLRFTSG [INTS4], the protein stability index (treatment: DMSO) came to 4.03 ± 0.33 and the protein stability index (treatment: MLN4924 1 uM, 8 h) turned out to be 4.15 ± 0.25.

IHLSAPCIYSEVMEALDLQPGLSF [PCMTD2]: the protein stability index runs as follows: (treatment: DMSO) 2.23 ± 0.23; (treatment: MLN4924 1 uM, 8 h) 1.96 ± 0.41.

In the case of IIRNVGKYREAARLEINVLKKIKE [CLK3], the protein stability index runs as follows: (treatment: DMSO) 2.68 ± 0.51; (treatment: MLN4924 1 uM, 8 h) 2.33 ± 0.27.

Take IKNDKYGPWLEWEIMLQYCFPRLD [PRIM1]: the protein stability index (treatment: MLN4924 1 uM, 8 h) is 3 ± 1.

IKPNEILPPEKGREVAKELGIPYY [RHOBTB2]: the protein stability index worked out at 3.73 ± 0.14 (treatment: DMSO) and 3.79 ± 0.12 (treatment: MLN4924 1 uM, 8 h).

In the case of IKQDINSLNKQIAQLQDFVRAKGS [STX5], the protein stability index was 3.25 ± 0.12 (treatment: DMSO) and 3.38 ± 0.28 (treatment: MLN4924 1 uM, 8 h).

For the sequence ILGVIGLFTIPLLYRQHQAQIDQY [RTN2], the protein stability index (treatment: DMSO) worked out at 3.28 ± 0.71 and the protein stability index (treatment: MLN4924 1 uM, 8 h) was 3.1 ± 0.84.

On to ILLVGYPPFWDEDQHRLYKQIKAG [CAMK2A], for which the protein stability index is, setting by setting: (treatment: DMSO) 2.29 ± 0.32; (treatment: MLN4924 1 uM, 8 h) 2.24 ± 0.19.

In the case of ILNSVEKYDPHTGHWTNVTPMATK [KLHL12], the protein stability index runs as follows: (treatment: DMSO) 3.15 ± 0.29; (treatment: MLN4924 1 uM, 8 h) 3.43 ± 0.44.

Take ILRCWKCRKCIASSGCFMEYLENQ [RNF180]: the protein stability index (treatment: DMSO) came to 2.36 ± 0.4 and the protein stability index (treatment: MLN4924 1 uM, 8 h) is 2.43 ± 0.46.

For IMVGFILYCSTPTRTAEPAESSVP [SLC35F2], the protein stability index runs as follows: (treatment: DMSO) 3.15 ± 0.68; (treatment: MLN4924 1 uM, 8 h) 2.62 ± 1.

With IPGLPGLRGLPGERGTPGLPGPKG [SCARA5], the protein stability index runs as follows: (treatment: DMSO) 4.34 ± 0.41; (treatment: MLN4924 1 uM, 8 h) 4.42 ± 0.22.

With IPHTHLLATLDPLALDREPPPHLL [WDR88], the protein stability index runs as follows: (treatment: DMSO) 3.23 ± 0.12; (treatment: MLN4924 1 uM, 8 h) 3.26 ± 0.14.

Source of the values: the supplement of paper PMC10567573.
